# Biological target: biotinylated recombinant human c-MET ECD (HGFR extracellular domain) (human) (UniProt P08581)
# Assay: HGF competition ELISA: HGF on the plate, biotinylated c-MET ECD pre-incubated with the antibody; blocked ligand HGF
substance,measurement,value
224G11 (antibody),IC50 (read off the curve),3 nM

# Source: patent US20180326085A1
